According to publication PMC4790104 (Analytical chemistry, 2016):

T1: Psf2-SpA (S. cerevisiae (endogenous in budding …, UniProt P40359 1-213))
T1 sequence (looked up): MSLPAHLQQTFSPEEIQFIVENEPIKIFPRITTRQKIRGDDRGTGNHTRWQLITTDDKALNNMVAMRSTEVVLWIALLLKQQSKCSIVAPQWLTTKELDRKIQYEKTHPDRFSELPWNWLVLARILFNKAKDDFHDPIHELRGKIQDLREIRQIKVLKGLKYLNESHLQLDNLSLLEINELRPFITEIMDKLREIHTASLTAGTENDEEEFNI

B1: Psf3 (natural protein, UniProt Q12146 1-194, looked up)
chain: MGYYDIDDVLADGTEFPCKFQYDIPGLGYLENNPGRPITKNTKLSLPLWLARILAIVGGDEALVDEEPVPFVELLPPDMFSTKVMNAIKTDPVALDLHSINSHFFSLAIKWIMLFSEKELANVVSELLLQRAQELNHHASSLSIDLNADSTGKNSANTNIATSTFLLKLEEMEKEIYKKSHESYKDTKRWMFKK
B2: Psf1 (natural protein, UniProt Q12488 1-208, looked up)
chain: MYGDLGNKLVLEAKRTKQLYARSNQDVNLPMYHEDIIRNILKEVSNLRKNTEYLKEQQQLGMLDDKVAKCQYFVTLLCMERNKRCLLAYQRLRTDILDSMAWNNNGLDLMSSITFSQQDTNNLSHQEQEYLKEYCDLITDLKSGDLVDIDLSGSLVPPSDVFIDVRVLKDAGEIQTEYGVFNLIKDSQFFVRQSDVERLIQQGYLQKI
B3: Sld5 (natural protein, UniProt Q03406 1-294, looked up)
chain: MDINIDDILAELDKETTAVDSTKITQGSSSTTHRDANTIVGSSLDLNDKTQIYVSPQQDFSDLMKSWKNERCSPELLPYPHQLMKRLLNRISMQSQLIENISMGFLDMQNASNANPPMPNESKLPLLCMETELERLKFVIRSYIRCRLSKIDKFSLYLRQLNEDENSLISLTDLLSKDEIKYHDTHSLIWLKLVNDSILKYMPEELQAINDTEGSVNMIDEPDWNKFVFIHVNGPPDGKWNEDPLLQENEFGKPCYTVTIPDLKEEVELTIGSIYVMRYEVIRDLLRDDKVALI
B4: Seh1 (natural protein, UniProt P53011 1-349, looked up)
chain: MQPFDSGHDDLVHDVVYDFYGRHVATCSSDQHIKVFKLDKDTSNWELSDSWRAHDSSIVAIDWASPEYGRIIASASYDKTVKLWEEDPDQEECSGRRWNKLCTLNDSKGSLYSVKFAPAHLGLKLACLGNDGILRLYDALEPSDLRSWTLTSEMKVLSIPPANHLQSDFCLSWCPSRFSPEKLAVSALEQAIIYQRGKDGKLHVAAKLPGHKSLIRSISWAPSIGRWYQLIATGCKDGRIRIFKITEKLSPLASEESLTNSNMFDNSADVDMDAQGRSDSNTEEKAELQSNLQVELLSEHDDHNGEVWSVSWNLTGTILSSAGDDGKVRLWKATYSNEFKCMSVITAQQ
B5: Nup85 (natural protein, UniProt P46673 1-744, looked up)
chain: MTIDDSNRLLMDVDQFDFLDDGTAQLSNNKTDEEEQLYKRDPVSGAILVPMTVNDQPIEKNGDKMPLKFKLGPLSYQNMAFITAKDKYKLYPVRIPRLDTSKEFSAYVSGLFEIYRDLGDDRVFNVPTIGVVNSNFAKEHNATVNLAMEAILNELEVFIGRVKDQDGRVNRFYELEESLTVLNCLRTMYFILDGQDVEENRSEFIESLLNWINRSDGEPDEEYIEQVFSVKDSTAGKKVFETQYFWKLLNQLVLRGLLSQAIGCIERSDLLPYLSDTCAVSFDAVSDSIELLKQYPKDSSSTFREWKNLVLKLSQAFGSSATDISGELRDYIEDFLLVIGGNQRKILQYSRTWYESFCGFLLYYIPSLELSAEYLQMSLEANVVDITNDWEQPCVDIISGKIHSILPVMESLDSCTAAFTAMICEAKGLIENIFEGEKNSDDYSNEDNEMLEDLFSYRNGMASYMLNSFAFELCSLGDKELWPVAIGLIALSATGTRSAKKMVIAELLPHYPFVTNDDIEWMLSICVEWRLPEIAKEIYTTLGNQMLSAHNIIESIANFSRAGKYELVKSYSWLLFEASCMEGQKLDDPVLNAIVSKNSPAEDDVIIPQDILDCVVTNSMRQTLAPYAVLSQFYELRDREDWGQALRLLLLLIEFPYLPKHYLVLLVAKFLYPIFLLDDKKLMDEDSVATVIEVIETKWDDADEKSSNLYETIIEADKSLPSSMATLLKNLRKKLNFKLCQAFM
B6: Nup145C (natural protein, UniProt P49687 606-1317, looked up)
chain: SIWGLVNEEDAEIDEDDLSKQEDGGEQPLRKVRTLAQSKPSDKEVILKTDGTFGTLSGKDDSIVEEKAYEPDLSDADFEGIEASPKLDVSKDWVEQLILAGSSLRSVFATSKEFDGPCQNEIDLLFSECNDEIDNAKLIMKERRFTASYTFAKFSTGSMLLTKDIVGKSGVSIKRLPTELQRKFLFDDVYLDKEIEKVTIEARKSNPYPQISESSLLFKDALDYMEKTSSDYNLWKLSSILFDPVSYPYKTDNDQVKMALLKKERHCRLTSWIVSQIGPEIEEKIRNSSNEIEQIFLYLLLNDVVRASKLAIESKNGHLSVLISYLGSNDPRIRDLAELQLQKWSTGGCSIDKNISKIYKLLSGSPFEGLFSLKELESEFSWLCLLNLTLCYGQIDEYSLESLVQSHLDKFSLPYDDPIGVIFQLYAANENTEKLYKEVRQRTNALDVQFCWYLIQTLRFNGTRVFSKETSDEATFAFAAQLEFAQLHGHSLFVSCFLNDDKAAEDTIKRLVMREITLLRASTNDHILNRLKIPSQLIFNAQALKDRYEGNYLSEVQNLLLGSSYDLAEMAIVTSLGPRLLLSNNPVQNNELKTLREILNEFPDSERDKWSVSINVFEVYLKLVLDNVETQETIDSLISGMKIFYDQYKHCREVAACCNVMSQEIVSKILEKNNPSIGDSKAKLLELPLGQPEKAYLRGEFAQDLMKCTYKI
B7: Nup120 (natural protein, UniProt P35729 1-1037, looked up)
chain: MACLSRIDANLLQYYEKPEPNNTVDLYVSNNSNNNGLKEGDKSISTPVPQPYGSEYSNCLLLSNSEYICYHFSSRSTLLTFYPLSDAYHGKTINIHLPNASMNQRYTLTIQEVEQQLLVNVILKDGSFLTLQLPLSFLFSSANTLNGEWFHLQNPYDFTVRVPHFLFYVSPQFSVVFLEDGGLLGLKKVDGVHYEPLLFNDNSYLKSLTRFFSRSSKSDYDSVISCKLFHERYLIVLTQNCHLKIWDLTSFTLIQDYDMVSQSDSDPSHFRKVEAVGEYLSLYNNTLVTLLPLENGLFQMGTLLVDSSGILTYTFQNNIPTNLSASAIWSIVDLVLTRPLELNVEASYLNLIVLWKSGTASKLQILNVNDESFKNYEWIESVNKSLVDLQSEHDLDIVTKTGDVERGFCNLKSRYGTQIFERAQQILSENKIIMAHNEDEEYLANLETILRDVKTAFNEASSITLYGDEIILVNCFQPYNHSLYKLNTTVENWFYNMHSETDGSELFKYLRTLNGFASTLSNDVLRSISKKFLDIITGELPDSMTTVEKFTDIFKNCLENQFEITNLKILFDELNSFDIPVVLNDLINNQMKPGIFWKKDFISAIKFDGFTSIISLESLHQLLSIHYRITLQVLLTFVLFDLDTEIFGQHISTLLDLHYKQFLLLNLYRQDKCLLAEVLLKDSSEFSFGVKFFNYGQLIAYIDSLNSNVYNASITENSFFMTFFRSYIIENTSHKNIRFFLENVECPFYLRHNEVQEFMFAMTLFSCGNFDQSYEIFQLHDYPEAINDKLPTFLEDLKSENYHGDSIWKDLLCTFTVPYRHSAFYYQLSLLFDRNNSQEFALKCISKSAEYSLKEIQIEELQDFKEKQHIHYLNLLIHFRMFEEVLDVLRLGHECLSDTVRTNFLQLLLQEDIYSRDFFSTLLRLCNAHSDNGELYLRTVDIKIVDSILSQNLRSGDWECFKKLYCFRMLNKSERAAAEVLYQYILMQADLDVIRKRKCYLMVINVLSSFDSAYDQWILNGSKVVTLTDLRDELRGL
B8: Sec13 (natural protein, UniProt Q04491 1-297, looked up)
chain: MVVIANAHNELIHDAVLDYYGKRLATCSSDKTIKIFEVEGETHKLIDTLTGHEGPVWRVDWAHPKFGTILASCSYDGKVLIWKEENGRWSQIAVHAVHSASVNSVQWAPHEYGPLLLVASSDGKVSVVEFKENGTTSPIIIDAHAIGVNSASWAPATIEEDGEHNGTKESRKFVTGGADNLVKIWKYNSDAQTYVLESTLEGHSDWVRDVAWSPTVLLRSYLASVSQDRTCIIWTQDNEQGPWKKTLLKEEKFPDVLWRASWSLSGNVLALSGGDNKVTLWKENLEGKWEPAGEVHQ

Each binder was assayed against T1, Psf2-SpA (assay: native MS).

stoichiometry N	Binder
1	B1
1	B2
1	B3

These binders were tested against Nup84-HRV-SpA (S. cerevisiae (endogenous in budding …, UniProt P52891 1-726)) (assay: native MS).
Sequence of Nup84-HRV-SpA (S. cerevisiae (P52891 whole entry): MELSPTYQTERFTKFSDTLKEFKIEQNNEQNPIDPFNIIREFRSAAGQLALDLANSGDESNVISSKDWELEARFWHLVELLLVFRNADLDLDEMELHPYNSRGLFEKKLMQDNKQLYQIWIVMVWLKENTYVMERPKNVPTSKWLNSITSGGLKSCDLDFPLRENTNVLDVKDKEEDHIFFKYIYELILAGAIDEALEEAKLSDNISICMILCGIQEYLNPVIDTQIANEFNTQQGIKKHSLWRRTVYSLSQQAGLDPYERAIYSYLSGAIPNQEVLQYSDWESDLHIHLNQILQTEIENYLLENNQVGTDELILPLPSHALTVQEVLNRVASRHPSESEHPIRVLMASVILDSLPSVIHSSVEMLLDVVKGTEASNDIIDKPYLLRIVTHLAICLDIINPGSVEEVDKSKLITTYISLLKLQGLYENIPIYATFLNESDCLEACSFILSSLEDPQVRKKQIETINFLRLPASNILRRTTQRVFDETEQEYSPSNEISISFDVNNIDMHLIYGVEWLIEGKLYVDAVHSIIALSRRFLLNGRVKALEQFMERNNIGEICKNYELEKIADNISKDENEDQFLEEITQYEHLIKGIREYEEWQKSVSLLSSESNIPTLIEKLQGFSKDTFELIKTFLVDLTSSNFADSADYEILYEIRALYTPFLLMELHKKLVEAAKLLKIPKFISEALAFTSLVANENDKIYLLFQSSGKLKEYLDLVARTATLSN

stoichiometry N	Binder
1	B4
1	B5
1	B6
1	B7
1	B8
